Experimental data taken from PMC3176798, “Movement Protein Pns6 of Rice dwarf phytoreovirus Has Both ATPase and RNA Binding Activities”.

What was measured:
His-Pns6 [1] = biological target: T1, His-Pns6 (Rice dwarf phytoreovirus (RDV), UniProt Q85438 1-509); experiment: competition EMSA; vs labeled S3-5a; higher than antisense strands; EMSA: 50 mM Tris-HCl pH 7.5, 50 mM NaCl, 10% glycerol, 20 min on ice; northwestern: 20 mM Tris-HCl pH 7.5, 50 mM NaCl, 0.1% Triton X-100, 1 mM DTT, 1 mM EDTA, 0.02% Ficoll 400 (renaturation and washes at 4 C), UV crosslinking after washing; details: protein: recombinant; tags: His (pET28a); label: 32P 5' end when probe
T1 sequence: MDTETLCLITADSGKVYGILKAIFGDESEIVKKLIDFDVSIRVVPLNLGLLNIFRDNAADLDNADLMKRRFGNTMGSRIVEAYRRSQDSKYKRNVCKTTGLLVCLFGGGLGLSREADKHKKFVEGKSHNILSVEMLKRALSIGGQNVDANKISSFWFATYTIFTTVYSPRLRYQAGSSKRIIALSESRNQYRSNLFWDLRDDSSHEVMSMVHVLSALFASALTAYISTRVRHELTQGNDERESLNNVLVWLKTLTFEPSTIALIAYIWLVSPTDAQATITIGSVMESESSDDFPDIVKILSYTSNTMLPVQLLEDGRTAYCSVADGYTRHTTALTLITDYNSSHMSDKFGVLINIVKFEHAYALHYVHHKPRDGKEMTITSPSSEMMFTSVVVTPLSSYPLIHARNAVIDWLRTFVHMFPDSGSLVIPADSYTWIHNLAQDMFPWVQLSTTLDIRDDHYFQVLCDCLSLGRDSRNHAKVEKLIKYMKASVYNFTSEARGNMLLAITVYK

His-Pns6 [2] = biological target: T1, His-Pns6; experiment: competition EMSA; vs labeled S3-5a; less than sense strands; EMSA: 50 mM Tris-HCl pH 7.5, 50 mM NaCl, 10% glycerol, 20 min on ice; northwestern: 20 mM Tris-HCl pH 7.5, 50 mM NaCl, 0.1% Triton X-100, 1 mM DTT, 1 mM EDTA, 0.02% Ficoll 400 (renaturation and washes at 4 C), UV crosslinking after washing; details: protein: recombinant; tags: His (pET28a); label: 32P 5' end when probe
His-Pns6 [3] = biological target: T1, His-Pns6; experiment: competition EMSA; vs labeled S3-5; equal to other dsRNAs; EMSA: 50 mM Tris-HCl pH 7.5, 50 mM NaCl, 10% glycerol, 20 min on ice; northwestern: 20 mM Tris-HCl pH 7.5, 50 mM NaCl, 0.1% Triton X-100, 1 mM DTT, 1 mM EDTA, 0.02% Ficoll 400 (renaturation and washes at 4 C), UV crosslinking after washing; details: protein: recombinant, tags: His (pET28a), blunt
His-Pns6 [4] = biological target: T1, His-Pns6; experiment: competition EMSA; vs labeled S3-5a; highest; EMSA: 50 mM Tris-HCl pH 7.5, 50 mM NaCl, 10% glycerol, 20 min on ice; northwestern: 20 mM Tris-HCl pH 7.5, 50 mM NaCl, 0.1% Triton X-100, 1 mM DTT, 1 mM EDTA, 0.02% Ficoll 400 (renaturation and washes at 4 C), UV crosslinking after washing; details: protein: recombinant; tags: His (pET28a); label: 32P 5' end when probe
His-Pns6 [5] = biological target: T1, His-Pns6; experiment: northwestern blot; EMSA: 50 mM Tris-HCl pH 7.5, 50 mM NaCl, 10% glycerol, 20 min on ice; northwestern: 20 mM Tris-HCl pH 7.5, 50 mM NaCl, 0.1% Triton X-100, 1 mM DTT, 1 mM EDTA, 0.02% Ficoll 400 (renaturation and washes at 4 C), UV crosslinking after washing; details: protein: recombinant; tags: His (pET28a); label: 32P 5' end when probe; 3' overhang 2 nt (UU) on both strands, 19 bp

B1: S3-3s (ssRNA)
RNA: UGUUUUGCUUGGUUCCUGAU
B1: binds (His-Pns6 [1]).

B2: S3-5a (ssRNA)
RNA: AUUGUUCGCUCGAUUUUGCC
B2: binds (His-Pns6 [2]).

B3: S3m (dsRNA)
RNA 1: CAAUCAAUAUGCUCGCCCCA
RNA 2: UGGGGCGAGCAUAUUGAUUG
B3: binds (His-Pns6 [3]).

B4: S3-3 (dsRNA)
RNA 1: UGUUUUGCUUGGUUCCUGAU
RNA 2: AUCAGGAACCAAGCAAAACA
B4: binds (His-Pns6 [3]).

B5: S3-5s (ssRNA)
RNA: GGCAAAAUCGAGCGAACAAU
B5: binds (His-Pns6 [4]).

B6: S3-3a (ssRNA)
RNA: AUCAGGAACCAAGCAAAACA
B6: binds (His-Pns6 [2]).

B7: S3-5 (dsRNA)
RNA 1: GGCAAAAUCGAGCGAACAAU
RNA 2: AUUGUUCGCUCGAUUUUGCC
B7: binds (His-Pns6 [3]; label: 32P 5' end when probe).

B8: dsR (dsRNA)
RNA 1: UUCUCCGAACGUGUCACGUUU
RNA 2: ACGUGACACGUUCGGAGAAUU
B8: binds (His-Pns6 [5]).
